Measurements: a protein production outcome set (Wang et al. 2014)

test: label from the status in PepcDB records

Sequence	protein production
MGSLVHVKEATVITPSDQTPSSVLSLSALDSQLFLRFTIEYLLVYPPVSDPEYSLSGRLKSALSRALVPYFPFSGRVREKPDGGGGLEVNCRGQGALFLEAVSDILTCLDFQKPPRHVTSWRKLLSLHVIDVLAGAPPLVVQLTWLRDGGAALAVGVNHCVSDGIGSAEFLTLFAELSKDSLSQTELKRKHLWDRQLLMPSPIRDSLSHPEFNRVPDLCGFVNRFNAERLVPTSVVFERQKLNELKKLASRLGEFNSKHTSFEVLSAHVWRSWARSLNLPSNQVLKLLFSVNIRDRVKPSLPSGFYGNAFVVGCAQTTVKDLTEKGLSYATMLVKQAKERVGDEYVRSVVEAVSKERASPDSVGVLILSQWSRLGLEKLDFGLGKPVHVGSVCCDRYCLLLPIPEQNDAVKVMVAVPSSSVDTYENLVTSPNA	failed
MGSRDLISSLPDEILGKVLSLLPTKRAASTAVLSKRWNNLPALVDKLDINDAIGGPGGFPEFIDKTLALLTNSTTIKRTSLNNEFQYGESQVNTWIRSFLERGCLQLYLNAQSLYTIDTEFFTSNTLVELTITGGFSPDGLLPPGGVFFPKLKTLSLVLMTFVDSDMYELFISGCPLLEEFLLRNDEIEIPPVWNALVSSPSIKRLTIVHHFPNYREAHDGCWFRTPNLVYLDYSSYVPDWYEVDLGSLVEARLDLRSWERLRDEKAGGYGDCDSVYDDEEYPDDPILGDVTNLVTGLSNIKTLHLSPDSLEVFYFCCKSMPVFHNLLTLSFESAKKEAGQCCHFSSISLLT	failed
MGSSARFRGRTDTMLLTRFNPENGTITVLSIPRDTRVEIPGYGTSKINAANVYGDVELTVQVVSQTLNYTPIDRYIRINTDAFRELVDLVGGVEVNVPKRMVYTDHTQKLYIDLQPGLQTLNGEQAEGFVRFRYDELGDIGRAQRQQLLIKALQEKLANPVMLTQLPKLYSVLQKYVDTDLTFAELMAIAQFSLRIQPDNLHLILLPGHFSGDGYGTSYWLPDYDRIDRVVAEHFSDRPSKLVDQRGSETGTLRIALQNASGSSGAAQDMADFLARHGYTNVLISEDWYQQTSETEIVAQQGDLGAAQVIRSVLGMGRVSANSTGVLSSDITIRIGRDWAAVLHLEHHHHHH	failed
MGSSGDLANSAERKLDDEKKRCDWRFTDNTPLIAACLLTGAVVLGVHYISICKDRTDISLPTLMESIESKCRSLGDAFNASAPESVLHPVPTQIGVAIWVAREEWSLPVHDTLDRIEKVVSGAGNRKQQFIQRIVRVSQLGSDGNLEKSSSSSTKWGGSSKVSQDPLANAAIKQQLGLSVAKHAYAVSLKEELLMHTISFFAAPPSAAKSVRCFLFDDKRAYCTVSTEMGMETTKREVEAAVATLLANWLEIENFRDANATQRWAMMRKVRGCHYALRALRQLKMSVDAHPEMPVPEGVRGAADRLEKLVRESDFAKLARAAADLQFHQLLLPQIYIPWDQAVVNHLSILMPVYGVITLAVRLIKENRKRAQVVQNS	failed
MGSSHHHHHHSSGRENLYFQGVKSEDQLVHICSREEWRTAEREGSRVPATFRADGFVHLSTPAQVHLPANRLFAGRTDLVLLRLDPTALGAPVKWEPGVPADPASMLFPHLYGPLPVAAVTGVEEYRPDADGTFPARR	not failed
MGSSLSNLNDGTNGLAMGPGLGDIPESCVACVFMYLTPPEICNLAGLNRSFRGAASSDSVWEKKLPENYQDLLDLLPPERYHSLSKKDIFAVLSRPIPFDDDNKEVWIDRVTGRVCMAISARGMSITGIEDRRYWNWIPTEESRFHVVAYLQQIWWFEVDGTVRFHLPPGVYSLSFRIHLGRFTKRLGRRVCHFELTHGWDLKPVRFSLSTSDGQEASCEYYLDDVERNEALGKHKRGYWIEYRVGEFIVNGSEPSTEIQWSMKQIDCTHSKGGLCVDSVFINPIGDVKEHKRKAVLKEA	failed
MGSSMEEKVVAVIMVGGPTKGTRFRPLSLNIPKPLFPIAGQPMVHHPISACKRIPNLAQIYLVGFYEEREFALYVSAISNELKVPVRYLREDKPHGSAGGLYHFRNLIMEDSPSHIFLLNCDVCCSFPLPKMLEAHRGYGGIGTLLVIKVSPESASQFGELVADPVTNELLHYTEKPETFVSDRINCGVYVFTPEIFNAIGDVSTQRKDRATLKRVSSFEALQPATRIPTDFVRLDQDILSPLAGKKRLYTYETMDFWEQIKSPGMSLRCSGLYLSQFRLTSPQLLASGDGTRSAIVIGDVYIHPSAKVHPTAKIGPNVSISANARVGPGVRLMSCIILDDVEIMENAVVTNAIVGWKSSIGRWSRVQAEGVYNSKLGVTILGDSVAVEDEVVVTSSIVLPNKTLNVSVQDEIIL	failed
MGTAWNYPDLGSKNPMSGMVQSETAVIGGAGNVGMGIVAALLDAGMPTVVIGRDAAKLDALRAQHGHSPLLDIVQGSVADDASARRLATELAQRHRPLGAVIASLGSPPKAGRLLDRPVAVLRRRLERDVLPHLAAARHLLPLLAEADGGGRYLLLGSPCALRAWSAHGDRSVAASATRMLAQVLHEEAKPLGVRVQLLSVEQPVCTPGRAKDACPEWIRAVDVGRAAVSLIAGPGQPGQAIVTVSRRPHAAPSASRLAGLHVSIPTREISP	failed
MGTGEKTLKSFQLHRKQSVKVKDVPKGCLAIKVGSQGEEQQRFIVPVLYFNHPLFMQLLKEAEDEYGFDQKGTITIPCHVEEFRYVQALIDGERSVYNGNNHHHRHGGRDQYHHLVGCFRA	failed
MGTIGAAGCTVNRFAVALMPDSGGHPRKPIAGVDAPPPHLLLVARRMTRPGEHMALTTYTPVITVFAAGREWTLERAADLQTLWDNMVEADFGDDERLPYWTELWPSSLVLADWLHDNAGRIRGRTCLDMGCGLGLCSLVGQWLGARVTGMDYEPEALFHARRNAERNRVPQPLWTVMDWRAPAVRRHAADLVWGGDIMYERRFVTPVLDFLDHVLAPCGAAWVAEPGRTVYNHFRETLDARGWHARRVLSSETASLYEQPESVTVHLWEITRLEHHHHHH	failed
MGTITGEFTEHSAEAIAAMLSYIVQTEYEKKQLAKDTLQKYEEVVFLSQFANAVATCTGLQELIEVIRAEIRQVISVDEIFLYLYDQSQDSLTPLLYKTEESLQNFKAIEKIVERVLKLNQVEVIDDIQNDQDYLNQPSKIRSLLCYSLTVQNSIIGVLGLAHYQVKHFDSSDLNLFSTLTGQVAAAIRTAQYYETIKNYSQTLEIRLEHHHHHH	failed
MGTKKNFVLDTNVILHDYNCLKNFQENDIYLPIVVLEELDKFKKGNEQINYNAREFVRELDLITDDSLFTHGAPLGEGLGKLFIVTGDSEAPKVHESFPARKPDHQILAVAEYLARKYPKMKNILVTKDVNLRMKARSIGILCEDYITDKVVNVDIFE	failed
MGTPGEGLGRCSHALIRGVPESLASGEGAGAGLPALDLAKAQREHGVLGGKLRQRLGLQLLELPPEESLPLGPLLGDTAVIQGDTALITRPWSPARRPEVDGVRKALQDLGLRIVEIGDENATLDGTDVLFTGREFFVGLSKWTNHRGAEIVADTFRDFAVSTVPVSGPSHLRGLCGMGGPRTVVAGSSDAAQKAVRAMAVLTDHPYASLTLPDDAAADCLFLRPGLPGVPPFLLHRGGGDLPNSQEALQKLSDVTLVPVSCSELEKAGAGLSSLCLVLSTRPHS	failed
MGTPVVWEGNIGNPPEHKSFPNGNNEPRQLLRLNVMFDNSIPDGSGGYKDRGGFWANVEWWHPDAERFAQLFSKGMRVVVTGRAIMDTWKDKETGDDVWALKVEANRVAILPHRVNQVTMTQSNNTGQRQNAQQNNRPERQQNSAQQPGQHTDDLSHYGNGFDDDIPVLEHHHHHH	not failed
MGTRGNEEEEDWFSDAREEVSSVSDCNSEVADDFVQATGDLDLWTMNPESVTNRRQKFFQSMGFSFKKRDFDLDLDLLGDSSSDHIPVSKQLTSVSETDHEEEEKEEKLLRNESTSSGSSVSSFSTASLAEAFSFRGSFQNRAKNIDDQILLTRDYSSNSSSIAEGLSESDSSRFDSYGDLPNSPMSRYEESPKKGAKGWLKKLGVLTHVLDKTEECTDGESTRSSIRRQLTRVQSFKKQFKELSSLCVGQEFSAHDGSIVVMKFSHDGKYLASAGEDCVVRVWNIIEDERRDNEFEVAESDSSCVYFGMNDKSQIEPLKTENEKIEKSRGLLRKKSESTCAVLPSKVFSISETPQHEFRGHTGEILDLSWSEKGFLLSSSVDETVRLWRVGSSDECIRVFSHKSFVTCVAFNPVDDNYFISGSIDGKVRIWDVSQFRVVDYTDIRQIVTALCYRPDGKGAVVGSMTGECRFYHTTDNQLQLDRDISLHGKKKVPNKRITGFQFFPGDSDKVMVTSADSQIRIICGVDTICKLKKASSLRTTLMSPTFASFTSDGKHIVSTIEESGIHVWDFSQPNKKASSQKPKTIRSYEGFLSRNVSVAIPWLGQGKEDSIIADLEKSFAHFPVPLDYFSPMKGATTWPEEKLGVVAGTAAAAVSATVSSRSKLRLLKSVCQNVHGSTPHLWGLVIVTATWDGSIRVFHNYGLPIRV	failed
